According to patent US20230201364A1 (BRIGHT PEAK THERAPEUTICS, published 2023):

Assays:
[1] = biological target: recombinant biotinylated PD1/CD279 protein (AcroBiosystems PD1-H82E4) (UniProt Q15116 25-167, biotinylated); experiment: ELISA; antibody coated on plate, biotinylated antigen titrated, streptavidin-HRP
Experimental: The interaction of the unmodified and of conjugated antibodies their antigens were measured by ELISA assay.
For these PD-1 ELISAs, Corning high-binding half-area plates (Fisher Scientific, Reinach, Switzerland) were coated overnight at 4° C. with 25 μl of unmodified and of conjugated anti-PD1 antibodies at 5 μg/ml in PBS. Plates were then washed four times with 100 μl of PBS-0.02% Tween20. Plates surfaces were blocked with 25 μl of PBS-0.02% Tween20-1% BSA at 37° C. during 1 h. Plates were then washed four times with 100 μl of PBS-0.02% Tween20. […] Fifty microliters of TMB substrate reagent (#CL07, Merck, Buchs, Switzerland) were added to each well and incubated at 37° C. during 5 min. After 5 min at 37° C., Horseradish peroxidase reaction was stopped by adding 50 μl/well of 0.5M H₂SO₄ stop solution. ELISA signal was then measured at 450 nm on an EnSpire plate reader from Perkin Elmer (Schwerzenbach, Switzerland). ELISAs for other antibody/antigen pairs were performed using analogous methods.

[2] = biological target: T1, recombinant biotinylated human Fc gamma receptor IIIa (FcγRIIIa/CD16) (human, UniProt P08637 17-208, limits assumed, biotinylated); experiment: AlphaLISA competition: test antibody titrated against biotinylated human FcγRIIIa; competitor: human IgG Fc on acceptor beads; signal normalized to %; panel 'FcγR3a/CD16 Binding Assay'
T1 construct: Allotype given inconsistently (V158 against 176P/F158); also called FcgRIIIa; FcγR3a
Experimental: (§1) The interaction of the unmodified and of conjugated antibodies with human Fc gamma receptors I (FcγRI/CD64), with human Fc gamma receptors II (FcγRIIa/CD32), and with low affinity human Fc gamma receptors III FcγR3a/CD16 V158 were measured using the AlphaLISA® Human FcγR1/CD64 (AL3081C), FcγRIIa/CD32a 167H (AL3086C), and FcγRIII/CD16 176P/F158 (AL3471HV) binding Kits respectively (Perkin Elmer, Schwerzenbach, Switzerland).
(§2) After 90 min at 23° C. in the dark, AlphaLISA® signal was measured on an EnSpire plate reader (Excitation at 680 nm, Emission at 615 nm) from Perkin Elmer (Schwerzenbach, Switzerland).

[3] = biological target: T2, recombinant biotinylated human Fc gamma receptor I (FcγRI/CD64) (human, UniProt P12314 16-288, limits assumed, biotinylated); experiment: AlphaLISA competition: test antibody titrated against biotinylated human FcγRI; competitor: human IgG Fc on acceptor beads; signal normalized to %; panel 'FcγR1/CD64 Binding Assay'
T2 construct: also called FcgRI
Experimental: as §1, §2

[4] = biological target: T3, recombinant biotinylated human Fc gamma receptor IIa (FcγRIIa/CD32a 167H) (human, UniProt P12318 36-218, limits assumed, biotinylated); experiment: AlphaLISA competition: test antibody titrated against biotinylated human FcγRIIa; competitor: human IgG Fc on acceptor beads; signal normalized to %; panel 'FcγR2a/CD32a Binding Assay'
T3 construct: also called FcgRIIa
T3 sequence (looked up): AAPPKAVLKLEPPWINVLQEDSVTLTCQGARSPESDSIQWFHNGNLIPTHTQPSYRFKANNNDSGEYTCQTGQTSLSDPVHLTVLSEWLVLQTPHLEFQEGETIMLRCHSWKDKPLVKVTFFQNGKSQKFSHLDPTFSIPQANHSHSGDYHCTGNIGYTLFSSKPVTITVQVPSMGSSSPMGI
Experimental: as §1, §2

[5] = biological target: T2, recombinant biotinylated human Fc gamma …; experiment: AlphaLISA competition: test antibody titrated against biotinylated human FcγRI on donor beads; competitor: human IgG Fc on acceptor beads; signal normalized to %
Experimental: as §1, §2

[6] = biological target: T1, recombinant biotinylated human Fc gamma …; experiment: AlphaLISA competition; test molecule titrated against human IgG Fc acceptor beads for biotinylated FcγRIIIa
Experimental: as §1, §2

[7] = biological target: T2, recombinant biotinylated human Fc gamma …; experiment: AlphaLISA competition; test molecule titrated against human IgG Fc acceptor beads for biotinylated FcγRI
Experimental: as §1, §2

[8] = biological target: T4, recombinant biotinylated human neonatal Fc receptor (FcRn) (human, UniProt P55899 24-297; P61769 21-119, limits assumed, biotinylated); experiment: AlphaLISA competition at pH 6; test molecule titrated against human IgG acceptor beads for biotinylated human FcRn
T4 construct: also called human FcRn
Experimental: (§3) The interaction of the unmodified and of conjugated anti-PD1 antibodies with the human neonatal Fc receptor (FcRn) at pH 6 was measured using the AlphaLISA Human FcRn Binding Kit (AL3095C) from Perkin Elmer (Schwerzenbach, Switzerland).
(§4) After 90 min at 23° C. in the dark, AlphaLISA signal was measured on an EnSpire plate reader (Excitation at 680 nm, Emission at 615 nm) from Perkin Elmer (Schwerzenbach, Switzerland).

[9] = biological target: T4, recombinant biotinylated human neonatal …; experiment: AlphaLISA competition at pH 6: test antibody titrated against biotinylated human FcRn on donor beads; competitor: human IgG on acceptor beads
Experimental: as §3, §4

B1: CMP-105 (LZM-009) (antibody, V domains shown)
VH: QVQLVQSGAEVKKPGASVKVSCKASGYTFTSYYMYWVRQAPGQGLEWMGGVNPSNGGTNFNEKFKSRVTITADKSTSTAYMELSSLRSEDTAVYYCARRDYRYDMGFDYWGQGTTVTVSS
VL: EIVLTQSPATLSLSPGERATISCRASKGVSTSGYSYLHWYQQKPGQAPRLLIYLASYLESGVPARFSGSGSGTDFTLTISSLEPEDFATYYCQHSRELPLTFGTGTKVEIK
notes: Unconjugated parent anti-PD-1 antibody (DAR 0); also called Livzon PD1 AB
- Kd [1]: 0.035 nM

B2: CMP-028 (LZM-009 conjugated to CMP-003, DAR 1.9, K288) (antibody)
VH: QVQLVQSGAEVKKPGASVKVSCKASGYTFTSYYMYWVRQAPGQGLEWMGGVNPSNGGTNFNEKFKSRVTITADKSTSTAYMELSSLRSEDTAVYYCARRDYRYDMGFDYWGQGTTVTVSS
VL: EIVLTQSPATLSLSPGERATISCRASKGVSTSGYSYLHWYQQKPGQAPRLLIYLASYLESGVPARFSGSGSGTDFTLTISSLEPEDFATYYCQHSRELPLTFGTGTKVEIK
chain: APTSSSTKKTQLQLEHLLLDLQXILNGINNYKNPKLTRXLXYKFYXPKKATELKHLQCLEEELKPLEEVLXLAQSKNFHLRPRDLISNINVIVLELKGSETTFXCEYADETATIVEFLNRWITFSQSIISTLT
modifications: not fully specified; Nle at 23, 39, 46 and Hse at 41, 71, 104 (as in SEQ ID NO: 3); ~0.5 kDa PEG on Y45; 0.5 kDa PEG on F42Y whose azide end is joined to the DBCO linker of the antibody; the heavy chain carries a chemical linker to CMP-003 on Lys K288 (Eu numbering) of the Fc; DAR 1.9
- Kd [1]: 0.041 nM

B3: CMP-016 (LZM-009 conjugated to CMP-003, DAR 1, K248) (antibody)
VH: QVQLVQSGAEVKKPGASVKVSCKASGYTFTSYYMYWVRQAPGQGLEWMGGVNPSNGGTNFNEKFKSRVTITADKSTSTAYMELSSLRSEDTAVYYCARRDYRYDMGFDYWGQGTTVTVSS
VL: EIVLTQSPATLSLSPGERATISCRASKGVSTSGYSYLHWYQQKPGQAPRLLIYLASYLESGVPARFSGSGSGTDFTLTISSLEPEDFATYYCQHSRELPLTFGTGTKVEIK
chain: APTSSSTKKTQLQLEHLLLDLQXILNGINNYKNPKLTRXLXYKFYXPKKATELKHLQCLEEELKPLEEVLXLAQSKNFHLRPRDLISNINVIVLELKGSETTFXCEYADETATIVEFLNRWITFSQSIISTLT
modifications: not fully specified; Nle at 23, 39, 46 and Hse at 41, 71, 104 (as in SEQ ID NO: 3); ~0.5 kDa PEG on Y45; 0.5 kDa PEG on F42Y whose azide end is joined to the DBCO linker of the antibody; the heavy chain carries a chemical linker to CMP-003 on Lys K248 (Eu numbering) of the Fc; DAR 1
- Kd [1]: 0.037 nM

B4: CMP-041 (LZM-009 conjugated to CMP-095 (IL-7), DAR 1, K248) (antibody)
VH: QVQLVQSGAEVKKPGASVKVSCKASGYTFTSYYMYWVRQAPGQGLEWMGGVNPSNGGTNFNEKFKSRVTITADKSTSTAYMELSSLRSEDTAVYYCARRDYRYDMGFDYWGQGTTVTVSS
VL: EIVLTQSPATLSLSPGERATISCRASKGVSTSGYSYLHWYQQKPGQAPRLLIYLASYLESGVPARFSGSGSGTDFTLTISSLEPEDFATYYCQHSRELPLTFGTGTKVEIK
chain: DCDIEGKDGKQYESVLXVSIDQLLDSXKEIGSNCLXNEFNFFKRHICDANKEGXFLFRAARKLRQFLKXNSTGDFXLHLLKVSEGTTILLNCTGQVKGRKPAALGEAQPTKSLXENKSLKEQKKLNDLCFLKRLLQEIKTCWNKILXGTKEH
modifications: not fully specified; Nle at 17, 27, 54, 69, 147 and Hse at 36, 76, 114 (as in SEQ ID NO: 187); N-terminal amine carries glutaryl-PEG9 whose azide end is joined to the DBCO linker of the antibody; the heavy chain carries a chemical linker to CMP-095 on Lys K248 (Eu numbering) of the Fc; DAR 1
notes: also called Livzon PD1:IL7wt
- Kd [1]: 0.035 nM

B5: CMP-102 (LZM-009 conjugated to CMP-003, DAR 1, K288) (antibody)
VH: QVQLVQSGAEVKKPGASVKVSCKASGYTFTSYYMYWVRQAPGQGLEWMGGVNPSNGGTNFNEKFKSRVTITADKSTSTAYMELSSLRSEDTAVYYCARRDYRYDMGFDYWGQGTTVTVSS
VL: EIVLTQSPATLSLSPGERATISCRASKGVSTSGYSYLHWYQQKPGQAPRLLIYLASYLESGVPARFSGSGSGTDFTLTISSLEPEDFATYYCQHSRELPLTFGTGTKVEIK
chain: APTSSSTKKTQLQLEHLLLDLQXILNGINNYKNPKLTRXLXYKFYXPKKATELKHLQCLEEELKPLEEVLXLAQSKNFHLRPRDLISNINVIVLELKGSETTFXCEYADETATIVEFLNRWITFSQSIISTLT
modifications: not fully specified; Nle at 23, 39, 46 and Hse at 41, 71, 104 (as in SEQ ID NO: 3); ~0.5 kDa PEG on Y45; 0.5 kDa PEG on F42Y whose azide end is joined to the DBCO linker of the antibody; the heavy chain carries a chemical linker to CMP-003 on Lys K288 (Eu numbering) of the Fc; DAR 1
- Kd [1]: 0.027 nM

B6: CMP-033 (Durvalumab) (antibody, human IgG1, kappa)
heavy chain: EVQLVESGGGLVQPGGSLRLSCAASGFTFSRYWMSWVRQAPGKGLEWVANIKQDGSEKYYVDSVKGRFTISRDNAKNSLYLQMNSLRAEDTAVYYCAREGGWFGELAFDYWGQGTLVTVSSASTKGPSVFPLAPSSKSTSGGTAALGCLVKDYFPEPVTVSWNSGALTSGVHTFPAVLQSSGLYSLSSVVTVPSSSLGTQTYICNVNHKPSNTKVDKRVEPKSCDKTHTCPPCPAPEFEGGPSVFLFPPKPKDTLMISRTPEVTCVVVDVSHEDPEVKFNWYVDGVEVHNAKTKPREEQYNSTYRVVSVLTVLHQDWLNGKEYKCKVSNKALPASIEKTISKAKGQPREPQVYTLPPSREEMTKNQVSLTCLVKGFYPSDIAVEWESNGQPENNYKTTPPVLDSDGSFFLYSKLTVDKSRWQQGNVFSCSVMHEALHNHYTQKSLSLSPGK
light chain: EIVLTQSPGTLSLSPGERATLSCRASQRVSSSYLAWYQQKPGQAPRLLIYDASSRATGIPDRFSGSGSGTDFTLTISRLEPEDFAVYYCQQYGSLPWTFGQGTKVEIKRTVAAPSVFIFPPSDEQLKSGTASVVCLLNNFYPREAKVQWKVDNALQSGNSQESVTEQDSKDSTYSLSSTLTLSKADYEKHKVYACEVTHQGLSSPVTKSFNRGEC
notes: unconjugated parent anti-PD-L1 antibody; also called Imfinzi; MEDI-4736
- IC50 (read off the curve) [2]: ~500 nM
- binding result [3]: binds
- IC50 (read off the curve) [4]: ~400 nM

B7: CMP-004 (Pembrolizumab) (antibody, human IgG4 S228P, kappa)
heavy: not shown
light: EIVLTQSPATLSLSPGERATLSCRASKGVSTSGYSYLHWYQQKPGQAPRLLIYLASYLESGVPARFSGSGSGTDFTLTISSLEPEDFAVYYCQHSRDLPLTFGGGTKVEIKRTVAAPSVFIFPPSDEQLKSGTASVVCLLNNFYPREAKVQWKVDNALQSGNSQESVTEQDSKDSTYSLSSTLTLSKADYEKHKVYACEVTHQGLSSPVTKSFNRGEC
notes: Unconjugated parent anti-PD-1 antibody (DAR 0); also called Lambrolizumab
- IC50 (read off the curve) [5]: ~0.5 nM
- Kd [6]: 289 nM
- Kd [7]: 0.488 nM
- Kd [8]: 7.31 nM
- IC50 (read off the curve) [9]: ~10 nM
